The values below come from publication doi:10.1101/2020.10.14.337170.

In test [1] the target is Leishmania mexicana KKT4^184–284 (Leishmania mexicana). The test is described as follows: crystal structure.
Test [2] has as its target Trypanosoma cruzi (Sylvio X10) KKT4^117–218 (Trypanosoma cruzi (Sylvio X10)). The test is described as follows: crystal structure.
The target in test [3] is KKT4^2–114 (Trypanosoma brucei). Nature of the test: SEC-MALS. (In general: SEC sorts molecules by how far they enter the pores of the column.)
Test [4] has the same target. The test is described as follows: SEC-MALS. The source holds these as a separate data set.
Test [5] has as its target SNAP-6HIS-3FLAG-KKT4 (KKT4^2–645) (Trypanosoma brucei). Nature of the test: SEC-MALS.
The target in test [6] is KKT4^101–352 (Trypanosoma brucei). Nature of the test: SEC-MALS.
Test [7] addresses Fluorescently-labelled phosphopeptide derived from KKT8 (Trypanosoma brucei). Nature of the test: fluorescence polarisation.

Like-named read-outs stand apart in the source and are kept apart here.

A word on the stoichiometry N: it is a count of units in the complex or per binding partner. As usually defined, the Kd is the equilibrium constant for the complex coming apart. A lower Kd goes with tighter binding.

In the case of “Leishmania mexicana KKT4^184–284 (domain or fragment)”, the stoichiometry N in test [1] was 2. Substance “Trypanosoma cruzi (Sylvio X10) KKT4^117–218 (domain or fragment)” displayed a stoichiometry N in test [2] of 2. KKT4^2–114 (domain or fragment): the stoichiometry N in test [3] came out at 4; in test [4], 3. In the case of “SNAP-6HIS-3FLAG-KKT4 (KKT4^2–645) (natural protein)”, the stoichiometry N in test [5] worked out at 4. KKT4^101–352 (domain or fragment) yielded a stoichiometry N in test [6] of 2. For the substance “KKT4^463–645 (KKT4 BRCT domain) (domain or fragment)”, in test [7], the Kd was found to be 30 µM.
